In patent publication US20200407445A1 (ITEOS THERAPEUTICS, published 2020):

T1: Human TIGIT-His (human, UniProt Q495A1 22-141, biotinylated in the ForteBio Fab assay)
T1 construct: bought (Creative Biomart); also called Biotinylated Human TIGIT HIS; TIGIT-His monomer; not shown: His tag
T1 sequence (looked up): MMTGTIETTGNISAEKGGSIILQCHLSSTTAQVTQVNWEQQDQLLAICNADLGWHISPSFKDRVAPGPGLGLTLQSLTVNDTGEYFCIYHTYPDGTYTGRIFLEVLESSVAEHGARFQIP

T2: Human TIGIT-Fc (human, UniProt Q495A1 22-141)
T2 construct: bought (Creative Biomart); also called TIGIT-Fc antigen; TIGIT-Fc fusion antigen; not shown: Fc part
T2 sequence (looked up): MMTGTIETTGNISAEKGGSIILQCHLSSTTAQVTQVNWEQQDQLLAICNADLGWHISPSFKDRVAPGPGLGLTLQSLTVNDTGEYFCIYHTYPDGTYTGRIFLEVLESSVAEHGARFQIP

T3: mouse TIGIT expressed on cells (mouse, UniProt P86176 29-249)
T3 construct: whole, on cells; on Jurkat cells engineered to express mouse TIGIT; also called mTIGIT; Jurkat-mTIGIT
T3 sequence (looked up): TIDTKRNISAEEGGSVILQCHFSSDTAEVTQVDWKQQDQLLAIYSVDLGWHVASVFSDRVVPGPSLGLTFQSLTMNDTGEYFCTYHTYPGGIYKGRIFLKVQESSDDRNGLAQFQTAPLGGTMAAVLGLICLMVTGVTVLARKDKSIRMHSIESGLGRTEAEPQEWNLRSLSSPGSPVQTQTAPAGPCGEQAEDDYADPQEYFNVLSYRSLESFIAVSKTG

T4: human TIGIT expressed on cells (human, UniProt Q495A1 22-244)
T4 sequence (looked up): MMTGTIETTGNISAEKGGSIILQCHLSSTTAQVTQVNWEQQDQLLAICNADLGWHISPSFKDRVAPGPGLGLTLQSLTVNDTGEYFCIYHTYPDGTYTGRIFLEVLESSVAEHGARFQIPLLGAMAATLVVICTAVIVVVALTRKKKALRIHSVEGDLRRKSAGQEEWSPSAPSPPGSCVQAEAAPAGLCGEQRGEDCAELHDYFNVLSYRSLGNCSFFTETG

T5: Mouse TIGIT-Fc (mouse, UniProt P86176 29-148, limits assumed)
T5 construct: not shown: Fc part
T5 sequence (looked up): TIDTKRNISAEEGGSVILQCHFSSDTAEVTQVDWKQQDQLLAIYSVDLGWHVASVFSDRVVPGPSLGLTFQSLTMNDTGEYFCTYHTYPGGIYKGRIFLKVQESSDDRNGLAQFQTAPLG

B1: Fab of anti-TIGIT clone 31288 (Fab, V domains shown)
VH: QLQLQESGPGLVKPSETLSLTCTVSGGSISSGSYYLAWIRQPPGKGLEWIGSIFRSGSTYYNPSLESRVTISVDTSKNQFSLKLSSVTAADTAVYYCAIEGANFKDFGYVAFDIWGQGTTVTVSS
VL: EIVMTQSPATLSVSPGERATLSCRASQSVSSNLAWYQQKPGQAPRLLIYGASTRATGIPARFSGSGSGTEFTLTISSLQSEDFAVYYCQQSPPWPRTFGGGTKVEIK
notes: Fab
B2: anti-TIGIT antibody clone 26486 (IgG) (antibody, V domains shown)
VH: QVQLQESGPGLVKPSETLSLTCAVSGYSISSGYYWAWIRQPPGKGLEWIGSIYHSGSTYYNPSLKSRVTISVDTSKNQFSLKLSSVTAADTAVYYCAIEGANYYDFGYVAFDIWGQGTMVTVSS
VL: EIVMTQSPATLSVSPGERATLSCRASQSVSSNLAWYQQKPGQAPRLLIYGASTRATGIPARFSGSGSGTEFTLTISSLQSEDFAVYYCQQSPPWPRTFGGGTKVEIK
notes: parent clone
B3: Fab of anti-TIGIT clone 26486 (Fab, V domains shown)
VH: QVQLQESGPGLVKPSETLSLTCAVSGYSISSGYYWAWIRQPPGKGLEWIGSIYHSGSTYYNPSLKSRVTISVDTSKNQFSLKLSSVTAADTAVYYCAIEGANYYDFGYVAFDIWGQGTMVTVSS
VL: EIVMTQSPATLSVSPGERATLSCRASQSVSSNLAWYQQKPGQAPRLLIYGASTRATGIPARFSGSGSGTEFTLTISSLQSEDFAVYYCQQSPPWPRTFGGGTKVEIK
B4: Fab of anti-TIGIT clone 32931 (Fab, V domains shown)
VH: QLQLQESGPGLVKPSETLSLTCTVSGGSISSGSYYLAWIRQPPGKGLEWIGSIFRSGSTYYNPSLESRVTISVDTSKNQFSLKLSSVTAADTAVYYCAIEGANFKDFGYVAFDIWGQGTTVTVSS
VL: EIVMTQSPATLSVSPGERATLSCRASKSVSSNLAWYQQKPGQAPRLLIYFASTRATGIPARFSGSGSGTEFTLTISSLQSEDFAVYYCQQTSPWPRTFGGGTKVEIK
notes: Fab
B5: anti-TIGIT antibody clone 32931 (IgG) (antibody, V domains shown)
VH: QLQLQESGPGLVKPSETLSLTCTVSGGSISSGSYYLAWIRQPPGKGLEWIGSIFRSGSTYYNPSLESRVTISVDTSKNQFSLKLSSVTAADTAVYYCAIEGANFKDFGYVAFDIWGQGTTVTVSS
VL: EIVMTQSPATLSVSPGERATLSCRASKSVSSNLAWYQQKPGQAPRLLIYFASTRATGIPARFSGSGSGTEFTLTISSLQSEDFAVYYCQQTSPWPRTFGGGTKVEIK
notes: human IgG; light chain optimised from 31288
B6: Fab of anti-TIGIT clone 29494 (Fab, V domains shown)
VH: QVQLQESGPGLVKPSETLSLTCTVSGGSISSGSYYLAWIRQPPGKGLEWIGSIFRSGSTYYNPSLESRVTISVDTSKNQFSLKLSSVTAADTAVYYCAIEGANFKDFGYVAFDIWGQGTMVTVSS
VL: EIVMTQSPATLSVSPGERATLSCRASQSVSSNLAWYQQKPGQAPRLLIYGASTRATGIPARFSGSGSGTEFTLTISSLQSEDFAVYYCQQSPPWPRTFGGGTKVEIK
B7: Fab of anti-TIGIT clone 32919 (Fab, V domains shown)
VH: QLQLQESGPGLVKPSETLSLTCTVSGGSISSGSYYLAWIRQPPGKGLEWIGSIFRSGSTYYNPSLESRVTISVDTSKNQFSLKLSSVTAADTAVYYCAIEGANFKDFGYVAFDIWGQGTTVTVSS
VL: EIVLTQSPATLSLSPGERATLSCRASQSVSSYLAWYQQKPGQAPRLLIYDASNRATGIPARFSGSGSGTDFTLTISSLEPEDFAVYYCQQENPRPRTFGGGTKVEIK
notes: Fab
B8: anti-TIGIT antibody clone 26521 (IgG) (antibody, V domains shown)
VH: QVQLVQSGAEVKKPGSSVKVSCKASGGTFSSYAISWVRQAPGQGLEWMGGIIPIFGTANYAQKFQGRVTITADESTSTAYMELSSLRSEDTAVYYCARLHLGSSAYYGMDVWGQGTTVTVSS
VL: DIQMTQSPSSLSASVGDRVTITCRASQSISSYLNWYQQKPGKAPKLLIYAASSLQSGVPSRFSGSGSGTDFTLTISSLQPEDFATYYCQQRYVFPPTFGGGTKVEIK
notes: parent clone
B9: Fab of anti-TIGIT clone 26521 (Fab, V domains shown)
VH: QVQLVQSGAEVKKPGSSVKVSCKASGGTFSSYAISWVRQAPGQGLEWMGGIIPIFGTANYAQKFQGRVTITADESTSTAYMELSSLRSEDTAVYYCARLHLGSSAYYGMDVWGQGTTVTVSS
VL: DIQMTQSPSSLSASVGDRVTITCRASQSISSYLNWYQQKPGKAPKLLIYAASSLQSGVPSRFSGSGSGTDFTLTISSLQPEDFATYYCQQRYVFPPTFGGGTKVEIK
B10: anti-TIGIT antibody clone 26432 (IgG) (antibody, V domains shown)
VH: QVQLVQSGAEVKKPGSSVKVSCKASGGTFSSYAISWVRQAPGQGLEWMGGIIPIFGTANYAQKFQGRVTITADESTSTAYMELSSLRSEDTAVYYCAREAQSYRVPFDIWGQGTMVTVSS
VL: EIVMTQSPATLSVSPGERATLSCRASQSVSSNLAWYQQKPGQAPRLLIYGASTRATGIPARFSGSGSGTEFTLTISSLQSEDFAVYYCQQYAIWPPFTFGGGTKVEIK
notes: also called parental clone 26432
B11: anti-TIGIT antibody clone 26518 (IgG) (antibody, V domains shown)
VH: EVQLVESGGGLVQPGGSLRLSCAASGFTFSSYGMSWVRQAPGKGLEWVANIKQDGSEKYYVDSVKGRFTISRDNAKNSLYLQMNSLRAEDTAVYYCARVSYYYDSSKLRWAEYFQHWGQGTLVTVSS
VL: EIVLTQSPATLSLSPGERATLSCRASQSVSSYLAWYQQKPGQAPRLLIYDASKRATGIPARFSGSGSGTDFTLTISSLEPEDFAVYYCQQVHNFPLTFGGGTKVEIK
notes: parent clone
B12: anti-TIGIT antibody clone 29478 (IgG) (antibody, V domains shown)
VH: EVQLVESGGGVVQPGRSLRLSCAASGFTFESYGMVWVRQAPGKGLEWVASILYDGSNRYYADSVKGRFTVSRDNSKNTLYLQMNSLRAEDTAVYYCARVSYYYDSVELRWAEYFQHWGQGTLVTVSS
VL: EIVLTQSPATLSLSPGERATLSCRASQSVSSYLAWYQQKPGQAPRLLIYDASKRATGIPARFSGSGSGTDFTLTISSLEPEDFAVYYCQQVHNFPLTFGGGTKVEIK
B13: anti-TIGIT antibody clone 32919 (IgG) (antibody, V domains shown)
VH: QLQLQESGPGLVKPSETLSLTCTVSGGSISSGSYYLAWIRQPPGKGLEWIGSIFRSGSTYYNPSLESRVTISVDTSKNQFSLKLSSVTAADTAVYYCAIEGANFKDFGYVAFDIWGQGTTVTVSS
VL: EIVLTQSPATLSLSPGERATLSCRASQSVSSYLAWYQQKPGQAPRLLIYDASNRATGIPARFSGSGSGTDFTLTISSLEPEDFAVYYCQQENPRPRTFGGGTKVEIK
notes: as for B5
B14: Fab of anti-TIGIT clone 26518 (Fab, V domains shown)
VH: EVQLVESGGGLVQPGGSLRLSCAASGFTFSSYGMSWVRQAPGKGLEWVANIKQDGSEKYYVDSVKGRFTISRDNAKNSLYLQMNSLRAEDTAVYYCARVSYYYDSSKLRWAEYFQHWGQGTLVTVSS
VL: EIVLTQSPATLSLSPGERATLSCRASQSVSSYLAWYQQKPGQAPRLLIYDASKRATGIPARFSGSGSGTDFTLTISSLEPEDFAVYYCQQVHNFPLTFGGGTKVEIK

What was measured:
[1] = molecular target: T6, Cyno TIGIT-Fc (cynomolgus, UniProt A0A7N9I9V4 89-209); experiment: ForteBio BLI, Fab KD, monovalent
T6 construct: not shown: Fc part

[2] = molecular target: T1, Human TIGIT-His; experiment: ForteBio BLI, Fab KD, monovalent
[3] = molecular target: T2, Human TIGIT-Fc; experiment: ForteBio BLI, IgG KD, avid
Protocol: Briefly, ForteBio affinity measurements were performed by loading IgGs on-line onto AHQ sensors. Sensors were equilibrated off-line in assay buffer for 30 min and then monitored on-line for 60 seconds for baseline establishment. Sensors with loaded IgGs were exposed to 100 nM antigen (human TIGIT-Fc, human TIGIT-His or cyno TIGIT-Fc) for 5 minutes, afterwards they were transferred to assay buffer for 5 min for off-rate measurement. Kinetics were analyzed using the 1:1 binding model.

[4] = molecular target: T3, mouse TIGIT expressed on cells; experiment: flow cytometry, 100 nM Ab, Jurkat-mTIGIT vs untransfected
Protocol: (§1) Antibodies were incubated with the cells for 20 min at 4° C. in FACS buffer. […] Geometric mean fluorecence intensity was analysed using LSR BD Fortessa. Cell binding was recorded as the median florescence intensity of PE on the transfected line compared to the un-transfected line for each antibody (Table 3).

[5] = molecular target: T4, human TIGIT expressed on cells; experiment: cell-based or functional assay
[6] = molecular target: T4, human TIGIT expressed on cells; experiment: flow cytometry, 100 nM Ab, Jurkat-hTIGIT vs untransfected
Protocol: as §1

[7] = molecular target: T4, human TIGIT expressed on cells; experiment: cell-based or functional assay; remark: listed apart in the source
[8] = molecular target: T5, Mouse TIGIT-Fc; experiment: ForteBio BLI, Fab KD, monovalent

T6 sequence (A0A7N9I9V4 entry or part of it): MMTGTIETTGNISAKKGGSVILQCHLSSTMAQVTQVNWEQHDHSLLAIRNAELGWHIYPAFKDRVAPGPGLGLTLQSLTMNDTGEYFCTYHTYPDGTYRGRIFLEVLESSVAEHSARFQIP

Binder	Kd [1] [nM]	Kd [2] [nM]	Kd [3] [nM]	FON (Fold Over Negative) [6] [fold]	further results
B1	25.1	2.09	–	–	–
B2	–	–	0.589	143	FON (Fold Over Negative) [4]: 199 fold; Induction over Isotype control (fold change), luciferase, Jurkat-hTIGIT + CHO-TCR-CD155, 133 nM [5]: 1.9 fold
B3	–	21.9	–	–	binding result [1]: no binding
B4	1.97	1.18	–	–	–
B5	–	–	–	741	EC50 of Jurkat-hTIGIT cell activation (luciferase), FIG. 12B [7]: 3.2 nM
B6	18.6	1.66	–	–	Kd [8]: 53.6 nM
B7	6.57	1.42	–	–	–
B8	–	–	0.541	146	FON (Fold Over Negative) [4]: 218 fold; Induction over Isotype control (fold change), luciferase, Jurkat-hTIGIT + CHO-TCR-CD155, 133 nM [5]: 2.66 fold
B9	149	9.87	–	–	–
B10	–	–	4.62	–	–
B11	–	–	0.63	154	FON (Fold Over Negative) [4]: 233 fold; Induction over Isotype control (fold change), luciferase, Jurkat-hTIGIT + CHO-TCR-CD155, 133 nM [5]: 2.89 fold
B12	–	–	0.527	182	FON (Fold Over Negative) [4]: 500 fold; Induction over Isotype control (fold change), luciferase, Jurkat-hTIGIT + CHO-TCR-CD155, 133 nM [5]: 3.57 fold
B13	–	–	–	680	EC50 of Jurkat-hTIGIT cell activation (luciferase), FIG. 12B [7]: 2.7 nM
B14	4.47	1.24	–	–	–
